According to patent publication US20260116991A1 (HAINAN SIMCERE ZAIMING PHARMACEUTICAL, published 2026):

Experiments:
monkey GPC3-His protein [1] = molecular target: T1, monkey GPC3-His protein (monkey); assay: ELISA, monkey GPC3-His coated; antibody 0.002 nM
T1 construct: Bought protein; also called monkey GPC3 protein
Description: (§1) The specific method is described as follows: The antigen protein was diluted with PBS to a final concentration of 1 μg/mL, and the diluent was added to a 96-well ELISA plate at 50 μL/well. The plate was sealed with a plastic film and incubated at 4° C. overnight, washed twice with PBS the next day, and a blocking solution [PBS+2% (w/w) BSA] was added for blocking at room temperature for 2 h. […] After incubation at 37° C. for 2 h, the plate was washed 3 times with PBS. A horseradish peroxidase (HRP)-labeled secondary antibody (purchased from Merck, Cat. No. AP113P) was added for incubation at 37° C. for 1 h, and the plate was washed 5 times with PBS. A TMB substrate was added at 50 μL/well for incubation at room temperature for 10 min, then a stop solution (1.0M HCl) was added at 50 μL/well.

monkey GPC3-His protein [2] = molecular target: T1, monkey GPC3-His protein; assay: ELISA, monkey GPC3-His coated; antibody 0.0004 nM
Description: as §1

monkey GPC3-His protein [3] = molecular target: T1, monkey GPC3-His protein; assay: ELISA, monkey GPC3-His coated; antibody 0.28 nM
Description: as §1

GPC3 on HepG2 cells = molecular target: T2, GPC3 on HepG2 cells (human, UniProt P51654 25-554); assay: FACS on HepG2 cells
T2 construct: whole, on cells; also called glypican-3
Description: The desired cells were expanded to a logarithmic growth phase in a T-75 cell culture flask, the medium was removed by pipetting, and the cells were washed twice with a PBS buffer, and digested with trypsin. Then a complete medium was added to stop the digestion, and the cells were blown into a single cell suspension. After counting, the cells were centrifuged, and the cell pellet was resuspended with an FACS buffer (PBS+2% fetal bovine serum) to 2×10⁶ cells/mL. The cell resuspension solution was added to a 96-well FACS reaction plate at 50 μl/well, and a humanized antibody sample to be tested was added at 50 μl/well for incubation at 4° C. for 1 h. […] After the plate was centrifuged and washed 3 times with a PBS buffer, 100 μl of the resulting solution was assayed and analyzed by FACS (FACS Canto™, purchased from BD Biosciences). Data analysis was performed by software (FlowJo) to obtain the mean fluorescence intensity (MFI) of the cells. Then, analysis was performed by software (GraphPad Prism8), data were fitted, and EC₅₀ values were calculated.

monkey GPC3-His protein [4] = molecular target: T1, monkey GPC3-His protein; assay: ELISA, monkey GPC3-His coated; antibody 0.011 nM
Description: as §1

monkey GPC3-His protein [5] = molecular target: T1, monkey GPC3-His protein; assay: ELISA, monkey GPC3-His coated; antibody 0.056 nM
Description: as §1

monkey GPC3-His protein [6] = molecular target: T1, monkey GPC3-His protein; assay: ELISA, monkey GPC3-His coated; antibody 34.72 nM
Description: as §1

monkey GPC3-His protein [7] = molecular target: T1, monkey GPC3-His protein; assay: ELISA, monkey GPC3-His coated; antibody 1.39 nM
Description: as §1

monkey GPC3-His protein [8] = molecular target: T1, monkey GPC3-His protein; assay: ELISA, monkey GPC3-His coated; antibody 6.94 nM
Description: as §1

murine GPC3-his protein [9] = molecular target: T3, murine GPC3-his protein (murine, UniProt Q8CFZ4 25-558, limits assumed); assay: ELISA, murine GPC3-his coated; antibody 0.004 nM
T3 construct: Bought protein; also called mouse GPC3 protein; murine GPC3 protein; not shown: His tag
T3 sequence (Q8CFZ4 25-558 limits assumed): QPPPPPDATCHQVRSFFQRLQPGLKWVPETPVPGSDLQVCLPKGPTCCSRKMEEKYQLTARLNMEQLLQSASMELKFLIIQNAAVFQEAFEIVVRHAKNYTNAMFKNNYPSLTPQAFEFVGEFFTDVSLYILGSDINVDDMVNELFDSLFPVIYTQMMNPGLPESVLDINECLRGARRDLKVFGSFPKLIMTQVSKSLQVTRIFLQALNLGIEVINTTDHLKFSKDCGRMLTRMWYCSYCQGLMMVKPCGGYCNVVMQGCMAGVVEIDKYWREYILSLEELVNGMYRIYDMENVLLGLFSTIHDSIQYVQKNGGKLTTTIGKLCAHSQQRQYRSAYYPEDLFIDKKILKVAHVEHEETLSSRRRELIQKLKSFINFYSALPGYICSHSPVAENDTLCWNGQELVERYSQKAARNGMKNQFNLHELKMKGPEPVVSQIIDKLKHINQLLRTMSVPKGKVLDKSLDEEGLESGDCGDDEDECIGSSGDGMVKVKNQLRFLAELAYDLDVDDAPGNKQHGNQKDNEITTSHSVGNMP

monkey GPC3-His protein [10] = molecular target: T1, monkey GPC3-His protein; assay: ELISA, monkey GPC3-His coated; antibody 0.004 nM
Description: as §1

murine GPC3-his protein [11] = molecular target: T3, murine GPC3-his protein; assay: ELISA, murine GPC3-his coated; antibody 0.53 nM
Description: as §1

monkey GPC3-His protein [12] = molecular target: T1, monkey GPC3-His protein; assay: ELISA, monkey GPC3-His coated; antibody 66.66 nM
Description: as §1

monkey GPC3-His protein [13] = molecular target: T1, monkey GPC3-His protein; assay: ELISA, monkey GPC3-His coated; antibody 0.53 nM
Description: as §1

monkey GPC3-His protein [14] = molecular target: T1, monkey GPC3-His protein; assay: ELISA, monkey GPC3-His coated; antibody 0.11 nM
Description: as §1

monkey GPC3-His protein [15] = molecular target: T1, monkey GPC3-His protein; assay: ELISA, monkey GPC3-His coated; antibody 13.33 nM
Description: as §1

monkey GPC3-His protein [16] = molecular target: T1, monkey GPC3-His protein; assay: ELISA, monkey GPC3-His coated; antibody 0.0008 nM
Description: as §1

murine GPC3-his protein [17] = molecular target: T3, murine GPC3-his protein; assay: ELISA, murine GPC3-his coated; antibody 0.02 nM
Description: as §1

monkey GPC3-His protein [18] = molecular target: T1, monkey GPC3-His protein; assay: ELISA, monkey GPC3-His coated; antibody 2.67 nM
Description: as §1

monkey GPC3-His protein [19] = molecular target: T1, monkey GPC3-His protein; assay: ELISA, monkey GPC3-His coated; antibody 0.02 nM
Description: as §1

murine GPC3-his protein [20] = molecular target: T3, murine GPC3-his protein; assay: ELISA, murine GPC3-his coated; antibody 66.66 nM
Description: as §1

murine GPC3-his protein [21] = molecular target: T3, murine GPC3-his protein; assay: ELISA, murine GPC3-his coated; antibody 0.0008 nM
Description: as §1

murine GPC3-his protein [22] = molecular target: T3, murine GPC3-his protein; assay: ELISA, murine GPC3-his coated; antibody 0.11 nM
Description: as §1

murine GPC3-his protein [23] = molecular target: T3, murine GPC3-his protein; assay: ELISA, murine GPC3-his coated; antibody 13.33 nM
Description: as §1

murine GPC3-his protein [24] = molecular target: T3, murine GPC3-his protein; assay: ELISA, murine GPC3-his coated; antibody 2.67 nM
Description: as §1

Row | Binder | OD450 nm (monkey GPC3-His protein [1]) | OD450 nm (monkey GPC3-His protein [2]) | OD450 nm (monkey GPC3-His protein [3]) | EC50 (GPC3 on HepG2 cells) | Max MFI (GPC3 on HepG2 cells) | OD450 nm (monkey GPC3-His protein [4]) | OD450 nm (monkey GPC3-His protein [5]) | OD450 nm (monkey GPC3-His protein [6]) | OD450 nm (monkey GPC3-His protein [7]) | OD450 nm (monkey GPC3-His protein [8]) | further results
1 | hAb006LH3L1c (antibody, human IgG1, V domains shown, Humanized F3.38.7, H3+L1c) VH: EVQLVQSGAEVKKPGSSVKVSCKASGYTFTDYEIHWVRQAPGQGLEWMGAIDPKTGNTAYNQKFMGRVTLTADKSTSTAYMELSSLRSEDTAVYYCTRYFSFAYWGQGTLVTVSS VL: DIVMTQTPLSLPVTPGEPASISCRSSQTFVHSNRNTYLQWYLQKPGQSPQLLIYKVSNRFSGVPDRFSGSGSGTDFTLKISRVEAEDVGVYYCFQGSHVPYTFGQGTKLEIK | 0.122 | 0.071 | 1.24 | 0.417 nM | 3520 | 0.332 | 0.876 | 1.26 | 1.32 | 1.33 | –
2 | hAb007LH1L1e (antibody, human IgG1, V domains shown, Humanized F3.81.19, H1+L1e) VH: EVQLVQSGAEVKKPGSSVKVSCKASGYTFSDYEMHWVRQAPGQGLEWMGTIDPETGNTAYNQKFKGRVTITADKSTSTAYMELSSLRSEDTAVYYCTRPYSLTYWGQGTLVTVSS VL: DIVMTQTPLSLPVTPGEPASISCRSSQSFVHSNVDTYLQWYLQKPGQSPQLLIYKVSNRFSGVPDRFSGSGSGTDFTLKISRVEAEDVGVYYCFQGSHVPYTFGQGTKLEIK | 0.148 | 0.043 | 0.399 | 10.1 nM | 2910 | 0.14 | 0.148 | 1.14 | 0.848 | 1.17 | –
3 | hAb007LH1L1d (antibody, human IgG1, V domains shown, Humanized F3.81.19, H1+L1d) VH: EVQLVQSGAEVKKPGSSVKVSCKASGYTFSDYEMHWVRQAPGQGLEWMGTIDPETGNTAYNQKFKGRVTITADKSTSTAYMELSSLRSEDTAVYYCTRPYSLTYWGQGTLVTVSS VL: DIVMTQTPLSLPVTPGEPASISCRSSQSFVHSNSDTYLQWYLQKPGQSPQLLIYKVSNRFSGVPDRFSGSGSGTDFTLKISRVEAEDVGVYYCFQGSHVPYTFGQGTKLEIK | 0.078 | 0.053 | 0.752 | 4.39 nM | 3830 | 0.09 | 0.235 | 1.25 | 1.2 | 1.3 | –
4 | hAb001H2L1a (antibody, human IgG1, V domains shown, Humanized F2.169.2, H2+L1a) VH: EVQLVESGGGLVQPGGSLRLSCAASGFSFNTNAMNWVRQAPGKGLEWVGRIRSKSNNYATYYADSVKDRFTISRDDSKSSLYLQMNSLKTEDTAVYYCVRDGYYVLFAYWGQGTLVTVSS VL: DIVMTQTPLSLPVTPGEPASISCRFSQSIVNSDGNTYLEWFLQKPGQSPQLLIYKVSNRFSGVPDRFSGSGSGTDFTLKISRVEAEDVGVYYCFQGSHVPFTFGQGTKLEIK | – | – | – | – | – | – | – | – | – | – | OD450 nm (murine GPC3-his protein [9]): 0.191; OD450 nm (monkey GPC3-His protein [10]): 0.094; OD450 nm (murine GPC3-his protein [11]): 2.19; OD450 nm (monkey GPC3-His protein [12]): 2.22; OD450 nm (monkey GPC3-His protein [13]): 2.02; OD450 nm (monkey GPC3-His protein [14]): 1.13; OD450 nm (monkey GPC3-His protein [15]): 2.34; OD450 nm (monkey GPC3-His protein [16]): 0.063; OD450 nm (murine GPC3-his protein [17]): 0.664; OD450 nm (monkey GPC3-His protein [18]): 2.25; OD450 nm (monkey GPC3-His protein [19]): 0.34; OD450 nm (murine GPC3-his protein [20]): 2.48; OD450 nm (murine GPC3-his protein [21]): 0.094; OD450 nm (murine GPC3-his protein [22]): 1.59; OD450 nm (murine GPC3-his protein [23]): 2.41; OD450 nm (murine GPC3-his protein [24]): 2.35
5 | hAb006LH3L1d (antibody, human IgG1, V domains shown, Humanized F3.38.7, H3+L1d) VH: EVQLVQSGAEVKKPGSSVKVSCKASGYTFTDYEIHWVRQAPGQGLEWMGAIDPKTGNTAYNQKFMGRVTLTADKSTSTAYMELSSLRSEDTAVYYCTRYFSFAYWGQGTLVTVSS VL: DIVMTQTPLSLPVTPGEPASISCRSSQTFVHSNSNTYLQWYLQKPGQSPQLLIYKVSNRFSGVPDRFSGSGSGTDFTLKISRVEAEDVGVYYCFQGSHVPYTFGQGTKLEIK | 0.121 | 0.068 | 1.1 | 0.772 nM | 3500 | 0.308 | 0.719 | 1.3 | 1.28 | 1.29 | –
6 | hAb007LH1L1c (antibody, human IgG1, V domains shown, Humanized F3.81.19, H1+L1c) VH: EVQLVQSGAEVKKPGSSVKVSCKASGYTFSDYEMHWVRQAPGQGLEWMGTIDPETGNTAYNQKFKGRVTITADKSTSTAYMELSSLRSEDTAVYYCTRPYSLTYWGQGTLVTVSS VL: DIVMTQTPLSLPVTPGEPASISCRSSQSFVHSNADTYLQWYLQKPGQSPQLLIYKVSNRFSGVPDRFSGSGSGTDFTLKISRVEAEDVGVYYCFQGSHVPYTFGQGTKLEIK | 0.069 | 0.05 | 0.744 | 3.67 nM | 3770 | 0.103 | 0.268 | 1.25 | 1.3 | 1.26 | –
7 | hAb001H2L1b (antibody, human IgG1, V domains shown, Humanized F2.169.2, H2+L1b) VH: EVQLVESGGGLVQPGGSLRLSCAASGFSFNTNAMNWVRQAPGKGLEWVGRIRSKSNNYATYYADSVKDRFTISRDDSKSSLYLQMNSLKTEDTAVYYCVRDGYYVLFAYWGQGTLVTVSS VL: DIVMTQTPLSLPVTPGEPASISCRFSQSIVNSNANTYLEWFLQKPGQSPQLLIYKVSNRFSGVPDRFSGSGSGTDFTLKISRVEAEDVGVYYCFQGSHVPFTFGQGTKLEIK | – | – | – | – | – | – | – | – | – | – | OD450 nm (murine GPC3-his protein [9]): 0.407; OD450 nm (monkey GPC3-His protein [10]): 0.317; OD450 nm (murine GPC3-his protein [11]): 2.38; OD450 nm (monkey GPC3-His protein [12]): 2.58; OD450 nm (monkey GPC3-His protein [13]): 2.54; OD450 nm (monkey GPC3-His protein [14]): 1.93; OD450 nm (monkey GPC3-His protein [15]): 2.47; OD450 nm (monkey GPC3-His protein [16]): 0.143; OD450 nm (murine GPC3-his protein [17]): 1.09; OD450 nm (monkey GPC3-His protein [18]): 2.45; OD450 nm (monkey GPC3-His protein [19]): 0.865; OD450 nm (murine GPC3-his protein [20]): 2.64; OD450 nm (murine GPC3-his protein [21]): 0.199; OD450 nm (murine GPC3-his protein [22]): 2.06; OD450 nm (murine GPC3-his protein [23]): 2.58; OD450 nm (murine GPC3-his protein [24]): 2.44
8 | hAb006LH3L1e (antibody, human IgG1, V domains shown, Humanized F3.38.7, H3+L1e) VH: EVQLVQSGAEVKKPGSSVKVSCKASGYTFTDYEIHWVRQAPGQGLEWMGAIDPKTGNTAYNQKFMGRVTLTADKSTSTAYMELSSLRSEDTAVYYCTRYFSFAYWGQGTLVTVSS VL: DIVMTQTPLSLPVTPGEPASISCRSSQTFVHSNVNTYLQWYLQKPGQSPQLLIYKVSNRFSGVPDRFSGSGSGTDFTLKISRVEAEDVGVYYCFQGSHVPYTFGQGTKLEIK | 0.114 | 0.066 | 1.14 | 1.01 nM | 2780 | 0.24 | 0.67 | 1.26 | 1.07 | 1.22 | –
